Measured values from paper PMC9396414 (2022).

Target: RbPLX7
Test: SPR

Kd: 0.346 nM
B1: biotinylated human Plexin-B1 (20–535)-Avi-6xHis (domain or fragment)
chain: LQPLPPTAFTPNGTYLQHLARDPTSGTLYLGATNFLFQLSPGLQLEATVSTGPVLDSRDCLPPVMPDECPQAQPTNNPNQLLLVSPGALVVCGSVHQGVCEQRRLGQLEQLLLRPERPGDTQYVAANDPAVSTVGLVAQGLAGEPLLFVGRGYTSRGVGGGIPPITTRALWPPDPQAAFSYEETAKLAVGRLSEYSHHFVSAFARGASAYFLFLRRDLQAQSRAFRAYVSRVCLRDQHYYSYVELPLACEGGRYGLIQAAAVATSREVAHGEVLFAAFSSAAPPTVGRPPSAAAGASGASALCAFPLDEVDRLANRTRDACYTREGRAEDGTEVAYIEYDVNSDCAQLPVDTLDAYPCGSDHTPSPMASRVPLEATPILEWPGIQLTAVAVTMEDGHTIAFLGDSQGQLHRVYLGPGSDGHPYSTQSIQQGSAVSRDLTFDGTFEHLYVMTQSTLLKVPVASCAQHLDCASCLAHRDPYCGWCVLLGRCSRRSECSRGQGPEQWLWSFQPELGCLQ
modifications: biotin on the Avi-tag (in vitro, BirA enzyme)
